The data set concerns the target GFP-KRS.

Results on one protein are retold here after patent publication US20170073659.

B1: caspase-8 (protein)
chain: MDFSRNLYDIGEQLDSEDLASLKFLSLDYIPQRKQEPIKDALMLFQRLQEKRMLEESNLSFLKELLFRINRLDLLITYLNTRKEEMERELQTPGRAQISAYRVMLYQISEEVSRSELRSFKFLLQEEISKCKLDDDMNLLDIFIEMEKRVILGEGKLDILKRVCAQINKSLLKIINDYEEFSKERSSSLEGSPDEFSNGEELCGVMTISDSPREQDSESQTLDKVYQMKSKPRGYCLIINNHNFAKAREKVPKLHSIRDRNGTHLDAGALTTTFEELHFEIKPHDDCTVEQIYEILKIYQLMDHSNMDCFICCILSHGDKGIIYGTDGQEAPIYELTSQFTGLKCPSLAGKPKVFFIQACQGDNYQKGIPVETDSEEQPYLEMDLSSPQTRYIPDEADFLLGMATVNNCVSYRNPAEGTWYIQSLCQSLRERCPRGDDILTILTEVNYEVSNKDDKKNMGKQMPQPTFTLRKKLVFPSD
Regarding B1, the “amount of KRS cleaved after caspase-8 overexpression (western blot with anti-GFP antibody)” value is listed as “the amount of KRS cleaved was increased with the increasing amount of caspase-8”.
